Numbered stars: 1 amine (or outer) side, 2 acyl side, 3 side chain; on linkers, the order of the positions; unused ones are H or OH. Bridge positions count the residues as written; N and C are the ends. Square brackets hold non-standard residues; d marks the D form. Side chains are listed from the residue outwards. Ends that are not written are not given here. * marks the point of attachment. C20 diacid = O=C(O)CCCCCCCCCCCCCCCCCCC(=O)*; γGlu = O=C(O)[C@H](CCC(=O)[*:2])N[*:1]
T1: human calcitonin receptor (human, UniProt P30988 25-474)
T1 sequence (looked up): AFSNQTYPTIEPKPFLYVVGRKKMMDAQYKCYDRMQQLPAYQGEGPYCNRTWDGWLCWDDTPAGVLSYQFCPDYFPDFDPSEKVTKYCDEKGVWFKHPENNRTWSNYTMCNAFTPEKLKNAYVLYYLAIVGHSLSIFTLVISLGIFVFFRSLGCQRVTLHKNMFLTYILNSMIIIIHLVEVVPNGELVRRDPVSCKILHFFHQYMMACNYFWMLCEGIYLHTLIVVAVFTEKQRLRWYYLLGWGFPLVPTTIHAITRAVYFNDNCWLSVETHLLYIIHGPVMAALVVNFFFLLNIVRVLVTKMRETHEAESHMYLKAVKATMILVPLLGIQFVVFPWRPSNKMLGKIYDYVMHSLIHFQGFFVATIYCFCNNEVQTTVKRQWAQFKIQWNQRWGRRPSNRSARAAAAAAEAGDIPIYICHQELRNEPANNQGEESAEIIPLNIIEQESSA

B1: N^ε1-[(4S)-4-carboxy-4-(19-carboxynonadecanoylamino)butanoyl]-[Glu14,Arg17,Pro21,Pro27,Pro34,Arg35]-h-amylin (peptide)
peptide: K([γGlu-C20 diacid])CNTATCATQRLAEFLRHSSPNFGAIPSSTNVGPRTY-NH2
modifications: disulfide 2-7; N-terminus assumed
SMILES: CC[C@H](C)[C@H](NC(=O)[C@H](C)NC(=O)CNC(=O)[C@H](Cc1ccccc1)NC(=O)[C@H](CC(N)=O)NC(=O)[C@@H]1CCCN1C(=O)[C@H](CO)NC(=O)[C@H](CO)NC(=O)[C@H](Cc1c[nH]cn1)NC(=O)[C@H](CCCNC(=N)N)NC(=O)[C@H](CC(C)C)NC(=O)[C@H](Cc1ccccc1)NC(=O)[C@H](CCC(=O)O)NC(=O)[C@H](C)NC(=O)[C@H](CC(C)C)NC(=O)[C@H](CCCNC(=N)N)NC(=O)[C@H](CCC(N)=O)NC(=O)[C@@H](NC(=O)[C@H](C)NC(=O)[C@@H]1CSSC[C@H](NC(=O)[C@@H](N)CCCCNC(=O)CC[C@H](NC(=O)CCCCCCCCCCCCCCCCCCC(=O)O)C(=O)O)C(=O)N[C@@H](CC(N)=O)C(=O)N[C@@H]([C@@H](C)O)C(=O)N[C@@H](C)C(=O)N[C@@H]([C@@H](C)O)C(=O)N1)[C@@H](C)O)C(=O)N1CCC[C@H]1C(=O)N[C@@H](CO)C(=O)N[C@@H](CO)C(=O)N[C@H](C(=O)N[C@@H](CC(N)=O)C(=O)N[C@H](C(=O)NCC(=O)N1CCC[C@H]1C(=O)N[C@@H](CCCNC(=N)N)C(=O)N[C@H](C(=O)N[C@@H](Cc1ccc(O)cc1)C(N)=O)[C@@H](C)O)C(C)C)[C@@H](C)O
notes: synthetic peptide amide
B2: N^ε1-[(4S)-4-carboxy-4-(19-carboxynonadecanoylamino)butanoyl]-[Glu14,Arg17,Pro21,Pro27,Pro34,His35]-h-amylin (peptide)
peptide: K([γGlu-C20 diacid])CNTATCATQRLAEFLRHSSPNFGAIPSSTNVGPHTY-NH2
modifications: disulfide 2-7
notes: synthetic peptide amide
B3: N^ε1-[(4S)-4-carboxy-4-[[(4S)-4-carboxy-4-(19-carboxynonadecanoylamino)butanoyl]amino]butanoyl]-[D-Asp14,Arg17,Pro21,Pro27,Arg35]-h-amylin (peptide)
peptide: K([γGlu-γGlu-C20 diacid])CNTATCATQRLA[dD]FLRHSSPNFGAIPSSTNVGSRTY-NH2
modifications: disulfide 2-7; N-terminus assumed
SMILES: CC[C@H](C)[C@H](NC(=O)[C@H](C)NC(=O)CNC(=O)[C@H](Cc1ccccc1)NC(=O)[C@H](CC(N)=O)NC(=O)[C@@H]1CCCN1C(=O)[C@H](CO)NC(=O)[C@H](CO)NC(=O)[C@H](Cc1c[nH]cn1)NC(=O)[C@H](CCCNC(=N)N)NC(=O)[C@H](CC(C)C)NC(=O)[C@H](Cc1ccccc1)NC(=O)[C@@H](CC(=O)O)NC(=O)[C@H](C)NC(=O)[C@H](CC(C)C)NC(=O)[C@H](CCCNC(=N)N)NC(=O)[C@H](CCC(N)=O)NC(=O)[C@@H](NC(=O)[C@H](C)NC(=O)[C@@H]1CSSC[C@H](NC(=O)[C@@H](N)CCCCNC(=O)CC[C@H](NC(=O)CC[C@H](NC(=O)CCCCCCCCCCCCCCCCCCC(=O)O)C(=O)O)C(=O)O)C(=O)N[C@@H](CC(N)=O)C(=O)N[C@@H]([C@@H](C)O)C(=O)N[C@@H](C)C(=O)N[C@@H]([C@@H](C)O)C(=O)N1)[C@@H](C)O)C(=O)N1CCC[C@H]1C(=O)N[C@@H](CO)C(=O)N[C@@H](CO)C(=O)N[C@H](C(=O)N[C@@H](CC(N)=O)C(=O)N[C@H](C(=O)NCC(=O)N[C@@H](CO)C(=O)N[C@@H](CCCNC(=N)N)C(=O)N[C@H](C(=O)N[C@@H](Cc1ccc(O)cc1)C(N)=O)[C@@H](C)O)C(C)C)[C@@H](C)O
notes: synthetic peptide amide
B4: N^ε1-[(4S)-4-carboxy-4-[[(4S)-4-carboxy-4-(19-carboxynonadecanoylamino)butanoyl]amino]butanoyl]-[Asp14,Arg17,Pro21,Pro27,Pro34,Glu35]-h-amylin (peptide)
peptide: K([γGlu-γGlu-C20 diacid])CNTATCATQRLADFLRHSSPNFGAIPSSTNVGPETY-NH2
modifications: disulfide 2-7
notes: synthetic peptide amide
B5: N^ε1-[(4S)-4-carboxy-4-[[(4S)-4-carboxy-4-(19-carboxynonadecanoylamino)butanoyl]amino]butanoyl]-[Asp14,Arg17,Pro21,Pro27,Pro34,Arg35]-h-amylin (peptide)
peptide: K([γGlu-γGlu-C20 diacid])CNTATCATQRLADFLRHSSPNFGAIPSSTNVGPRTY-NH2
modifications: disulfide 2-7
notes: synthetic peptide amide; also called compound 130
B6: N^ε1-[(4S)-4-carboxy-4-[[(4S)-4-carboxy-4-(19-carboxynonadecanoylamino)butanoyl]amino]butanoyl]-[Glu14,Arg17,Pro21,Pro27,His34,Glu35]-h-amylin (peptide)
peptide: K([γGlu-γGlu-C20 diacid])CNTATCATQRLAEFLRHSSPNFGAIPSSTNVGHETY-NH2
modifications: disulfide 2-7; N-terminus assumed
SMILES: CC[C@H](C)[C@H](NC(=O)[C@H](C)NC(=O)CNC(=O)[C@H](Cc1ccccc1)NC(=O)[C@H](CC(N)=O)NC(=O)[C@@H]1CCCN1C(=O)[C@H](CO)NC(=O)[C@H](CO)NC(=O)[C@H](Cc1c[nH]cn1)NC(=O)[C@H](CCCNC(=N)N)NC(=O)[C@H](CC(C)C)NC(=O)[C@H](Cc1ccccc1)NC(=O)[C@H](CCC(=O)O)NC(=O)[C@H](C)NC(=O)[C@H](CC(C)C)NC(=O)[C@H](CCCNC(=N)N)NC(=O)[C@H](CCC(N)=O)NC(=O)[C@@H](NC(=O)[C@H](C)NC(=O)[C@@H]1CSSC[C@H](NC(=O)[C@@H](N)CCCCNC(=O)CC[C@H](NC(=O)CC[C@H](NC(=O)CCCCCCCCCCCCCCCCCCC(=O)O)C(=O)O)C(=O)O)C(=O)N[C@@H](CC(N)=O)C(=O)N[C@@H]([C@@H](C)O)C(=O)N[C@@H](C)C(=O)N[C@@H]([C@@H](C)O)C(=O)N1)[C@@H](C)O)C(=O)N1CCC[C@H]1C(=O)N[C@@H](CO)C(=O)N[C@@H](CO)C(=O)N[C@H](C(=O)N[C@@H](CC(N)=O)C(=O)N[C@H](C(=O)NCC(=O)N[C@@H](Cc1c[nH]cn1)C(=O)N[C@@H](CCC(=O)O)C(=O)N[C@H](C(=O)N[C@@H](Cc1ccc(O)cc1)C(N)=O)[C@@H](C)O)C(C)C)[C@@H](C)O
notes: synthetic peptide amide
B7: N^ε1-[(4S)-4-carboxy-4-[[(4S)-4-carboxy-4-(19-carboxynonadecanoylamino)butanoyl]amino]butanoyl]-[Arg17,Pro21,Pro27,Pro31,Pro34,Arg35]-h-amylin (peptide)
peptide: K([γGlu-γGlu-C20 diacid])CNTATCATQRLANFLRHSSPNFGAIPSSTPVGPRTY-NH2
modifications: disulfide 2-7; N-terminus assumed
SMILES: CC[C@H](C)[C@H](NC(=O)[C@H](C)NC(=O)CNC(=O)[C@H](Cc1ccccc1)NC(=O)[C@H](CC(N)=O)NC(=O)[C@@H]1CCCN1C(=O)[C@H](CO)NC(=O)[C@H](CO)NC(=O)[C@H](Cc1c[nH]cn1)NC(=O)[C@H](CCCNC(=N)N)NC(=O)[C@H](CC(C)C)NC(=O)[C@H](Cc1ccccc1)NC(=O)[C@H](CC(N)=O)NC(=O)[C@H](C)NC(=O)[C@H](CC(C)C)NC(=O)[C@H](CCCNC(=N)N)NC(=O)[C@H](CCC(N)=O)NC(=O)[C@@H](NC(=O)[C@H](C)NC(=O)[C@@H]1CSSC[C@H](NC(=O)[C@@H](N)CCCCNC(=O)CC[C@H](NC(=O)CC[C@H](NC(=O)CCCCCCCCCCCCCCCCCCC(=O)O)C(=O)O)C(=O)O)C(=O)N[C@@H](CC(N)=O)C(=O)N[C@@H]([C@@H](C)O)C(=O)N[C@@H](C)C(=O)N[C@@H]([C@@H](C)O)C(=O)N1)[C@@H](C)O)C(=O)N1CCC[C@H]1C(=O)N[C@@H](CO)C(=O)N[C@@H](CO)C(=O)N[C@H](C(=O)N1CCC[C@H]1C(=O)N[C@H](C(=O)NCC(=O)N1CCC[C@H]1C(=O)N[C@@H](CCCNC(=N)N)C(=O)N[C@H](C(=O)N[C@@H](Cc1ccc(O)cc1)C(N)=O)[C@@H](C)O)C(C)C)[C@@H](C)O
notes: synthetic peptide amide
B8: N^ε1-[(4S)-4-carboxy-4-[[(4S)-4-carboxy-4-(19-carboxynonadecanoylamino)butanoyl]amino]butanoyl]-[Glu14,Arg17,Pro21,Pro27,Arg34,Glu35]-h-amylin (peptide)
peptide: K([γGlu-γGlu-C20 diacid])CNTATCATQRLAEFLRHSSPNFGAIPSSTNVGRETY-NH2
modifications: disulfide 2-7; N-terminus assumed
SMILES: CC[C@H](C)[C@H](NC(=O)[C@H](C)NC(=O)CNC(=O)[C@H](Cc1ccccc1)NC(=O)[C@H](CC(N)=O)NC(=O)[C@@H]1CCCN1C(=O)[C@H](CO)NC(=O)[C@H](CO)NC(=O)[C@H](Cc1c[nH]cn1)NC(=O)[C@H](CCCNC(=N)N)NC(=O)[C@H](CC(C)C)NC(=O)[C@H](Cc1ccccc1)NC(=O)[C@H](CCC(=O)O)NC(=O)[C@H](C)NC(=O)[C@H](CC(C)C)NC(=O)[C@H](CCCNC(=N)N)NC(=O)[C@H](CCC(N)=O)NC(=O)[C@@H](NC(=O)[C@H](C)NC(=O)[C@@H]1CSSC[C@H](NC(=O)[C@@H](N)CCCCNC(=O)CC[C@H](NC(=O)CC[C@H](NC(=O)CCCCCCCCCCCCCCCCCCC(=O)O)C(=O)O)C(=O)O)C(=O)N[C@@H](CC(N)=O)C(=O)N[C@@H]([C@@H](C)O)C(=O)N[C@@H](C)C(=O)N[C@@H]([C@@H](C)O)C(=O)N1)[C@@H](C)O)C(=O)N1CCC[C@H]1C(=O)N[C@@H](CO)C(=O)N[C@@H](CO)C(=O)N[C@H](C(=O)N[C@@H](CC(N)=O)C(=O)N[C@H](C(=O)NCC(=O)N[C@@H](CCCNC(=N)N)C(=O)N[C@@H](CCC(=O)O)C(=O)N[C@H](C(=O)N[C@@H](Cc1ccc(O)cc1)C(N)=O)[C@@H](C)O)C(C)C)[C@@H](C)O
notes: synthetic peptide amide
B9: N^ε1-[(4S)-4-carboxy-4-[[(4S)-4-carboxy-4-(19-carboxynonadecanoylamino)butanoyl]amino]butanoyl]-[Glu14,Arg17,Pro21,Pro27,Pro34,His35]-h-amylin (peptide)
peptide: K([γGlu-γGlu-C20 diacid])CNTATCATQRLAEFLRHSSPNFGAIPSSTNVGPHTY-NH2
modifications: disulfide 2-7 (inferred)
notes: synthetic peptide amide
B10: N^ε1-[(4S)-4-carboxy-4-[[(4S)-4-carboxy-4-(19-carboxynonadecanoylamino)butanoyl]amino]butanoyl]-[Glu14,Arg17,Pro21,Pro27,Pro34,Arg35]-h-amylin (peptide)
peptide: K([γGlu-γGlu-C20 diacid])CNTATCATQRLAEFLRHSSPNFGAIPSSTNVGPRTY-NH2
modifications: disulfide 2-7; N-terminus assumed
SMILES: CC[C@H](C)[C@H](NC(=O)[C@H](C)NC(=O)CNC(=O)[C@H](Cc1ccccc1)NC(=O)[C@H](CC(N)=O)NC(=O)[C@@H]1CCCN1C(=O)[C@H](CO)NC(=O)[C@H](CO)NC(=O)[C@H](Cc1c[nH]cn1)NC(=O)[C@H](CCCNC(=N)N)NC(=O)[C@H](CC(C)C)NC(=O)[C@H](Cc1ccccc1)NC(=O)[C@H](CCC(=O)O)NC(=O)[C@H](C)NC(=O)[C@H](CC(C)C)NC(=O)[C@H](CCCNC(=N)N)NC(=O)[C@H](CCC(N)=O)NC(=O)[C@@H](NC(=O)[C@H](C)NC(=O)[C@@H]1CSSC[C@H](NC(=O)[C@@H](N)CCCCNC(=O)CC[C@H](NC(=O)CC[C@H](NC(=O)CCCCCCCCCCCCCCCCCCC(=O)O)C(=O)O)C(=O)O)C(=O)N[C@@H](CC(N)=O)C(=O)N[C@@H]([C@@H](C)O)C(=O)N[C@@H](C)C(=O)N[C@@H]([C@@H](C)O)C(=O)N1)[C@@H](C)O)C(=O)N1CCC[C@H]1C(=O)N[C@@H](CO)C(=O)N[C@@H](CO)C(=O)N[C@H](C(=O)N[C@@H](CC(N)=O)C(=O)N[C@H](C(=O)NCC(=O)N1CCC[C@H]1C(=O)N[C@@H](CCCNC(=N)N)C(=O)N[C@H](C(=O)N[C@@H](Cc1ccc(O)cc1)C(N)=O)[C@@H](C)O)C(C)C)[C@@H](C)O
notes: synthetic peptide amide; also called compound 110

Target: T1, human calcitonin receptor
Assay: cell-based or functional assay

hCTR funct. EC50 (pM) | Binder
6380 | B1
1450 | B2
100000 | B3
843 | B4
7280 | B5
7050 | B6
8660 | B7
7430 | B8
2830 | B9
8160 | B10

From patent US20140087995A1 (published 2014)
